The values below come from PMC4756693, “Structural analysis of disease-related TDP-43 D169G mutation: linking enhanced stability and caspase cleavage efficiency to protein accumulation”.

The data set has as its target TDP-43 RRM1 (human, UniProt Q13148 101-191). As to the kind of experiment: X-ray crystallography; crystals at pH 5.5, PEG 3350, ammonium acetate; Co-crystallization, protein:DNA 1:1.2; protein in 50 mM HEPES pH 7.5, 100 mM NaCl, 10 mM bME; hanging drop at room temperature (stated for RRM1/DNA). (TG)15 Kd. The following applies: protein: recombinant; tags: N-terminal His; single strand; 8 and 9 nt modelled in the two RRM1 complexes.

Chain of TDP-43 RRM1 (Q13148 101-191): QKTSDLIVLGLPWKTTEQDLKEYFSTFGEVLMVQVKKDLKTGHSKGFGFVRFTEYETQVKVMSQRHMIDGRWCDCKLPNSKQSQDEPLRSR

For the molecule GTTGAGCGTT (ssDNA, none) [10-nt ssDNA], the binding result was “binds”.
